Laboratory results published in US6100053A, “Microbial transglutaminases, their production and use” (priority 1994, dated 2000).
Where two headings read alike, the source gives them in different places.

Columns and labels:
[1] = molecular target: α-casein
[2] = molecular target: α-casein; remark: listed apart in the source

| Substance | Units/ml (putrescine assay) [1] | Units/ml (putrescine assay) [2] |
| --- | --- | --- |
| TGase sample of Zymomonas mobilis (pool or library) | 0.36 units/ml | – |
| TGase sample of Bacillus megaterium, AJ 3355 (pool or library) | 0.03 units/ml | – |
| TGase sample of Bacteridium sp., DSM 10093 (pool or library) | 0.3 units/ml | – |
| Ca2+-independent transglutaminase from Streptomyces platensis (enzyme) | 1.4 units/ml | – |
| TGase sample of Pseudomonas amyloderamosa (pool or library) | 0.08 units/ml | – |
| transglutaminase preparation (culture broth) of Cercospora fusimaculans (pool or library) | – | 1.3 Units/ml |
| transglutaminase preparation (culture broth) of Halosphaeriopsis mediosetigera (pool or library) | – | 0.34 Units/ml |
| transglutaminase preparation (culture broth) of Cunninghamella elegans (pool or library) | – | 0.23 Units/ml |
| transglutaminase preparation (culture broth) of Preussia isomera (pool or library) | – | 0.22 Units/ml |
| transglutaminase preparation (culture broth) of Armillaria sp. (pool or library) | – | 0.62 Units/ml |
| transglutaminase preparation (culture broth) of Botryosphaeria rhodina (pool or library) | – | 0.32 Units/ml |
| transglutaminase preparation (culture broth) of Hygrophoropsis aurantiaca (pool or library) | – | 0.17 Units/ml |
| transglutaminase preparation (culture broth) of Cladosporium resinae (pool or library) | – | 0.14 Units/ml |
| transglutaminase preparation (culture broth) of Mucor aligarensis (pool or library) | – | 0.31 Units/ml |
| transglutaminase preparation (culture broth) of Cladosporium oxysporum (pool or library) | – | 0.19 Units/ml |
| transglutaminase preparation (culture broth) of Lignincola sp. (pool or library) | – | 0.15 Units/ml |
| transglutaminase preparation (culture broth) of Stropharia coerulea (pool or library) | – | 0.16 Units/ml |
| transglutaminase preparation (culture broth) of Fusarium dimerum (pool or library) | – | 0.25 Units/ml |
| transglutaminase preparation (culture broth) of Lyophyllum sp. (pool or library) | – | 0.25 Units/ml |
| transglutaminase preparation (culture broth) of Cercospora hayi (pool or library) | – | 0.26 Units/ml |
| transglutaminase preparation (culture broth) of Gymnopilus junonius (pool or library) | – | 0.2 Units/ml |
| transglutaminase preparation (culture broth) of Neosartorya quadricineta (pool or library) | – | 0.22 Units/ml |
| transglutaminase preparation (culture broth) of Aspergillus puniceus (pool or library) | – | 0.12 Units/ml |
| transglutaminase preparation (culture broth) of Monodictys pelagica (pool or library) | – | 2.31 Units/ml |
| transglutaminase preparation (culture broth) of Curvularia borreiae (pool or library) | – | 0.28 Units/ml |
| transglutaminase preparation (culture broth) of Carponia solliomaris (pool or library) | – | 0.11 Units/ml |
